Results taken from PMC5469197, “ANGUSTIFOLIA, a Plant Homolog of CtBP/BARS Localizes to Stress Granules and Regulates Their Formation” (Frontiers in Plant Science, 2017).

Key:
Experiment in all cases: co-IP; LUMIER in HEK293TN cells: Prot-A fusion co-transfected with Renilla luciferase fusion (AN always the luciferase fusion with the interactors); luciferase activity before (input) and after pulldown; percentage pulldown = pulldown/input x 100; empty vectors as negative control; positive if more than two times the background
Conditions in all cases: partners not purified
[1] = target: T1, POLY(A) BINDING PROTEIN 2 (PAB2), Prot-A fusion (Arabidopsis thaliana, UniProt P42731 1-629)
T1 construct: CDS amplified from Col-0 cDNA; also called AtPAB2; source: HEK293TN cells, transfected; not shown: Protein A (Staphylococcus aureus), N-terminal, kept
T1 sequence (looked up): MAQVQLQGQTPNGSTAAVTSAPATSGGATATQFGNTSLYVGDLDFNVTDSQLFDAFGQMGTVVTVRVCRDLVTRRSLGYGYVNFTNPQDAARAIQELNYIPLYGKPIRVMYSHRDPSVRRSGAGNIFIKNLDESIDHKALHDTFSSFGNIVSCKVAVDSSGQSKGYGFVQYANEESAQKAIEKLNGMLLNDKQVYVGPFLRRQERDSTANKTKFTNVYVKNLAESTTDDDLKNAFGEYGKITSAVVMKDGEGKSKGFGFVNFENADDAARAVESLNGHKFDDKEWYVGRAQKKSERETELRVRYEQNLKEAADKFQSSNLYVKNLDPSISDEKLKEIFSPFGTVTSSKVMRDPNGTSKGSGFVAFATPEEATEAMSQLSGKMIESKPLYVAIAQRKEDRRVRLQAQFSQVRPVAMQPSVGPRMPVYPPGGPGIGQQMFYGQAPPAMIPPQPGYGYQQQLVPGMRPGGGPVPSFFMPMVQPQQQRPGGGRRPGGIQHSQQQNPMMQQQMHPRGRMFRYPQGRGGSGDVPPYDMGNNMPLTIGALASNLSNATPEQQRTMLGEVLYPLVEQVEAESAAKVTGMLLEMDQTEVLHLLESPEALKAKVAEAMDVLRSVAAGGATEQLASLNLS

[2] = target: T2, TANDEM ZINC FINGER 3 (TZF3), Prot-A fusion (Arabidopsis thaliana, UniProt Q9M0G2 1-356)
T2 construct: Tandem zinc finger 3, Arabidopsis thaliana, AT4G29190; CDS amplified from Col-0 cDNA; source: HEK293TN cells, transfected; not shown: Protein A (Staphylococcus aureus), N-terminal, kept
T2 sequence (looked up): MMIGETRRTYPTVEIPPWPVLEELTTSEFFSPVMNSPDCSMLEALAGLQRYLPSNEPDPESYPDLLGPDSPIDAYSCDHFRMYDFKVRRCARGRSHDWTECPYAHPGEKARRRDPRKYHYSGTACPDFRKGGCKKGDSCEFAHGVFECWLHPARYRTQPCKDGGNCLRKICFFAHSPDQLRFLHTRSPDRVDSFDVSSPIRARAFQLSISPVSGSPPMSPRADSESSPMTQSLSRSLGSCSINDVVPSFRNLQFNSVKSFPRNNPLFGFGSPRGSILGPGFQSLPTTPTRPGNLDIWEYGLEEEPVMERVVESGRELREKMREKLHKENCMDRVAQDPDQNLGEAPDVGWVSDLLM

[3] = target: T3, RNA BINDING PROTEIN 47C (RBP47C), Prot-A fusion (Arabidopsis thaliana, UniProt Q9SX79 1-432)
T3 construct: RBP47C, Arabidopsis thaliana, AT1G47490; CDS amplified from Col-0 cDNA; source: HEK293TN cells, transfected; not shown: Protein A (Staphylococcus aureus), N-terminal, kept
T3 sequence (looked up): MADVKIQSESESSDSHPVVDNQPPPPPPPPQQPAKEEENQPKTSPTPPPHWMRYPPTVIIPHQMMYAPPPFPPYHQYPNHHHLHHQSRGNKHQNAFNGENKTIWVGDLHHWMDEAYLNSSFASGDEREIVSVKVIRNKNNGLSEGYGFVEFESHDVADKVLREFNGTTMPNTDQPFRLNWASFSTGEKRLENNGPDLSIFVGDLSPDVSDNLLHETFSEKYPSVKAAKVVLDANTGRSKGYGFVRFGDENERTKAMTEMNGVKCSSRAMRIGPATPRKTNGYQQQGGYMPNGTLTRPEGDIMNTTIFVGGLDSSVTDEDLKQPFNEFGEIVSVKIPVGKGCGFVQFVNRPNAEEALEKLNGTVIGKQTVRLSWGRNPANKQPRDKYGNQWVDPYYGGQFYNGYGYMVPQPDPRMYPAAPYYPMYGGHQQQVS

[4] = target: T4, …ONALLY CONTROLLED TUMOR PROTEIN (TCTP), Prot-A fusion (Arabidopsis thaliana, UniProt P31265 1-168)
T4 construct: Translationally controlled tumor protein, Arabidopsis thaliana, AT3G16640; CDS amplified from Col-0 cDNA; source: HEK293TN cells, transfected; not shown: Protein A (Staphylococcus aureus), N-terminal, kept
T4 sequence (looked up): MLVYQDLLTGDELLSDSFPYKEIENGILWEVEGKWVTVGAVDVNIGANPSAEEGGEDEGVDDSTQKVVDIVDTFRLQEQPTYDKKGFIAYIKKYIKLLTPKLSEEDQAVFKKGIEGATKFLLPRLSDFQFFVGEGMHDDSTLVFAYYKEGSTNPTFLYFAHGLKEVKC

B1: AN, Renilla luciferase fusion (LUMIER) (natural protein, Arabidopsis thaliana, UniProt O23702 1-636, looked up)
chain: MSKIRSSATMPHRDQPSPASPHVVTLNCIEDCALEQDSLAGVAGVEYVPLSRIADGKIESATAVLLHSLAYLPRAAQRRLRPHQLILCLGSADRAVDSTLAADLGLRLVHVDTSRAEEIADTVMALILGLLRRTHLLSRHALSASGWLGSLQPLCRGMRRCRGMVLGIVGRSVSARYLASRSLAFKMSVLYFDVPEGDEERIRPSRFPRAARRMDTLNDLLAASDVISLHCALTNDTVQILNAECLQHIKPGAFLVNTGSCQLLDDCAVKQLLIDGTIAGCALDGAEGPQWMEAWVKEMPNVLILPRSADYSEEVWMEIREKAISILHSFFLDGVIPSNTVSDEEVEESEASEEEEQSPSKHEKLAIVESTSRQQGESTLTSTEIVRREASELKESLSPGQQHVSQNTAVKPEGRRSRSGKKAKKRHSQQKYMQKTDGSSGLNEESTSRRDDIAMSDTEEVLSSSSRCASPEDSRSRKTPLEVMQESSPNQLVMSSKKFIGKSSELLKDGYVVALYAKDLSGLHVSRQRTKNGGWFLDTLSNVSKRDPAAQFIIAYRNKDTVGLRSFAAGGKLLQINRRMEFVFASHSFDVWESWSLEGSLDECRLVNCRNSSAVLDVRVEILAMVGDDGITRWID
notes: ANGUSTIFOLIA (AN), Arabidopsis thaliana, AT1G01510; CDS amplified from Col-0 cDNA; in the dimerisation test the second copy must have been the N-terminal protein A fusion (surmised from the LUMIER format); also called wild-type AN; source: HEK293TN cells, transfected; not shown: Renilla reniformis luciferase, N-terminal, kept
fold change from background [1]: 7.67 fold | percentage pulldown [1]: 0.71% | fold change from background [2]: 5.25 fold | percentage pulldown [2]: 0.5% | fold change from background [3]: 4.97 fold | percentage pulldown [3]: 0.46% | fold change from background [4]: 3.12 fold | percentage pulldown [4]: 0.28%
